The source of these data is PMC9482650, “Quantitative fragmentomics allow affinity mapping of interactomes” (Nature Communications, 2022).

The test system of one test is HaCat cell extract preys. As to the kind of experiment: PDZ-AP-MS, biotinylated MBP-PDZ baits. The following applies: for Difference log2: enrichment of prey; for Ratio SNX27/MBP: bait SNX27 PDZ. It is filed as binding, human. Here is the method: (§1) For PDZ-AP-MS experiments, PDZ domains were cloned as His6-AviTag-MBP-PDZ constructs. For co-expression with BirA, E. coli BL21(DE3) cells were co-transformed with His6-AviTag-MBP, or His6-AviTag-MBP-PDZ-coding and PET21a-BirA (Addgene #20857) plasmids. Simultaneously to IPTG induction, 50 µM biotin was added to the media. After cell harvesting, the lysis buffer was also supplemented with 50 µM biotin. Otherwise, expression and double affinity purification was identical as previously described in details.
(§2) For PBM-AP-MS experiments, 30 μl streptavidin resin was mixed with biotin or peptide at 50–60 μM concentration in 6–6.5 resin volume for 60 min to achieve resin saturation. For PDZ-AP-MS experiments, 30 μl streptavidin resin was mixed with biotinylated MBP or MBP-PDZ at 40-50 μM concentration in >1000× resin volume for 60 min to achieve resin saturation. After saturation, resins were washed a single time (ten resin volume, holdup buffer), and were depleted with biotin (1 mM biotin, 5–10 resin volume, 10 min). Finally, resins were washed two times. 0.5 ml 2 mg/ml cell lysate was added to the dry resin (1 mg total input) and were incubated at 4 °C for 2 h. Then, the beads were washed three times with 10 resin volume buffer containing: 50 mM TRIS pH 8.5, 150 mM NaCl, 1% TritonX-100, 10× complete EDTA-free protease inhibitor cocktail, 2 mM EDTA, 1 mM TCEP. Then, the beads were washed two times with ten resin volume buffer containing: 50 mM TRIS pH 8.5, 150 mM NaCl, 1 mM TCEP. Finally, captured protein was eluted from the resin in two steps and the eluted fractions were pooled. For each elution the beads were incubated for 30 min with three resin volume buffer containing: 20 mM TRIS pH8.5, 100 mM NaCl, 500 μM TCEP, 8 M Urea. Between each step, the beads were separated by mild centrifugation and the supernatant was removed by gentle pipetting.
(§3) The samples were precipitated with TCA 20% overnight at 4 °C and centrifuged at 14,000 rpm for 10 min at 4 °C. The protein pellets were washed twice with 1 mL cold acetone and air dried. The protein extracts were solubilized in urea 8 M, reduced with 5 mM TCEP for 30 min, and alkylated with 10 mM iodoacetamide for 30 min in the dark. Double digestion was performed at 37 °C with 500 ng endoproteinase Lys-C for 4 h, followed by fourfold dilution and an overnight digestion with 500 ng trypsin. Peptide mixtures were then desalted on C18 spin-column and dried on Speed-Vacuum.
(§4) Samples were analyzed using an Ultimate 3000 nano-RSLC (Thermo Scientific, San Jose California) coupled in line with a LTQ-Orbitrap ELITE mass spectrometer via a nano-electrospray ionization source (Thermo Scientific, San Jose California). Peptide mixtures were injected in 0.1% TFA on a C18 Acclaim PepMap100 trap-column (75 µm ID × 2 cm, 3 µm, 100 Å, Thermo Fisher Scientific) for 3 min at 5 µL/min with 2% ACN, 0.1% FA in H2O and then separated on a C18 Accucore nano-column (75 µm ID × 50 cm, 2.6 µm, 150 Å, Thermo Fisher Scientific) at 220 nl/min and 38 °C with a 90 min linear gradient from 5% to 30% buffer B (A: 0.1% FA in H2O/B: 99% ACN, 0.1% FA in H2O), regeneration at 5% B. The mass spectrometer was operated in positive ionization mode, in data-dependent mode with survey scans from m/z 350–1500 acquired in the Orbitrap at a resolution of 120,000 at m/z 400. The 20 most intense peaks from survey scans were selected for further fragmentation in the Linear Ion Trap with an isolation window of 2.0 Da and were fragmented by CID with normalized collision energy of 35%. (TOP20CID method) Unassigned and single charged states were excluded from fragmentation. The Ion Target Value for the survey scans (in the Orbitrap) and the MS2 mode (in the Linear Ion Trap) were set to 1E6 and 5E3 respectively and the maximum injection time was set to 100 ms for both scan modes. Dynamic exclusion was set to 20 s after one repeat count with mass width at ±10 ppm. […]

The next test relates to HeLa cell extract preys. Kind of test: PDZ-AP-MS, biotinylated MBP-PDZ baits. Type of test: binding, human. The note with it: for Difference: log2 enrichment of prey; for Ratio: fold enrichment of prey. Here is the method: as §1, §2, §3, §4
Setting [1] is: bait SCRIB_2 PDZ (biotinylated MBP-PDZ) vs MBP control.
The mark [2] stands for this setting: bait SCRIB_2 PDZ vs MBP control.

B1: DARS1 (protein, UniProt P14868 1-501, looked up)
Aspartate--tRNA ligase, …: MPSASASRKSQEKPREIMDAAEDYAKERYGISSMIQSQEKPDRVLVRVRDLTIQKADEVVWVRARVHTSRAKGKQCFLVLRQQQFNVQALVAVGDHASKQMVKFAANINKESIVDVEGVVRKVNQKIGSCTQQDVELHVQKIYVISLAEPRLPLQLDDAVRPEAEGEEEGRATVNQDTRLDNRVIDLRTSTSQAVFRLQSGICHLFRETLINKGFVEIQTPKIISAASEGGANVFTVSYFKNNAYLAQSPQLYKQMCICADFEKVFSIGPVFRAEDSNTHRHLTEFVGLDIEMAFNYHYHEVMEEIADTMVQIFKGLQERFQTEIQTVNKQFPCEPFKFLEPTLRLEYCEALAMLREAGVEMGDEDDLSTPNEKLLGHLVKEKYDTDFYILDKYPLAVRPFYTMPDPRNPKQSNSYDMFMRGEEILSGAQRIHDPQLLTERALHHGIDLEKIKAYIDSFRFGAPPHAGGGIGLERVTMLFLGLHNVRQTSMFPRDPKRLTP
As for B1, the “Difference log2” value with HaCat cell extract preys (bait SCRIB_2 PDZ vs MBP) is 3.605. The “Ratio SCRIB_2/MBP” value in the test with HaCat cell extract preys (bait SCRIB_2 PDZ, fold change of prey) was 12.1719.

B2: CAVIN1 (protein, UniProt Q6NZI2 1-390, looked up)
Caveolae-associated protein 1: MEDPTLYIVERPLPGYPDAEAPEPSSAGAQAAEEPSGAGSEELIKSDQVNGVLVLSLLDKIIGAVDQIQLTQAQLEERQAEMEGAVQSIQGELSKLGKAHATTSNTVSKLLEKVRKVSVNVKTVRGSLERQAGQIKKLEVNEAELLRRRNFKVMIYQDEVKLPAKLSISKSLKESEALPEKEGEELGEGERPEEDAAALELSSDEAVEVEEVIEESRAERIKRSGLRRVDDFKKAFSKEKMEKTKVRTRENLEKTRLKTKENLEKTRHTLEKRMNKLGTRLVPAERREKLKTSRDKLRKSFTPDHVVYARSKTAVYKVPPFTFHVKKIREGQVEVLKATEMVEVGADDDEGGAERGEAGDLRRGSSPDVHALLEITEESDAVLVDKSDSD
As to B2, in the test on HaCat cell extract preys (bait SNX27 PDZ vs MBP), the “Difference log2” value is listed as 7.364. Also, in the test on HaCat cell extract preys (fold change of prey), the “Ratio SNX27/MBP” value is given as 164.68.

B3: FUS (protein, UniProt P35637 1-526, looked up)
RNA-binding protein FUS: MASNDYTQQATQSYGAYPTQPGQGYSQQSSQPYGQQSYSGYSQSTDTSGYGQSSYSSYGQSQNTGYGTQSTPQGYGSTGGYGSSQSSQSSYGQQSSYPGYGQQPAPSSTSGSYGSSSQSSSYGQPQSGSYSQQPSYGGQQQSYGQQQSYNPPQGYGQQNQYNSSSGGGGGGGGGGNYGQDQSSMSSGGGSGGGYGNQDQSGGGGSGGYGQQDRGGRGRGGSGGGGGGGGGGYNRSSGGYEPRGRGGGRGGRGGMGGSDRGGFNKFGGPRDQGSRHDSEQDNSDNNTIFVQGLGENVTIESVADYFKQIGIIKTNKKTGQPMINLYTDRETGKLKGEATVSFDDPPSAKAAIDWFDGKEFSGNPIKVSFATRRADFNRGGGNGRGGRGRGGPMGRGGYGGGGSGGGGRGGFPSGGGGGGGQQRAGDWKCPNPTCENMNFSWRNECNQCKAPKPDGPGGGPGGSHMGGNYGDDRRGGRGGYDRGGYRGRGGDRGGFRGGRGGGDRGGFGPGKMDSRGEHRQDRRERPY
As to B3, the Difference in the test on HeLa cell extract preys (setting [1]) was 4.68. In the test with HeLa cell extract preys (setting [2]), the Ratio came to 25.6321.

B4: HSPD1 (protein, UniProt P10809 27-573, looked up)
60 kDa heat shock protein, …: AKDVKFGADARALMLQGVDLLADAVAVTMGPKGRTVIIEQSWGSPKVTKDGVTVAKSIDLKDKYKNIGAKLVQDVANNTNEEAGDGTTTATVLARSIAKEGFEKISKGANPVEIRRGVMLAVDAVIAELKKQSKPVTTPEEIAQVATISANGDKEIGNIISDAMKKVGRKGVITVKDGKTLNDELEIIEGMKFDRGYISPYFINTSKGQKCEFQDAYVLLSEKKISSIQSIVPALEIANAHRKPLVIIAEDVDGEALSTLVLNRLKVGLQVVAVKAPGFGDNRKNQLKDMAIATGGAVFGEEGLTLNLEDVQPHDLGKVGEVIVTKDDAMLLKGKGDKAQIEKRIQEIIEQLDVTTSEYEKEKLNERLAKLSDGVAVLKVGGTSDVEVNEKKDRVTDALNATRAAVEEGIVLGGGCALLRCIPALDSLTPANEDQKIGIEIIKRTLKIPAMTIAKNAGVEGSLIVEKIMQSSSEVGYDAMAGDFVNMVEKGIIDPTKVVRTALLDAAGVASLLTTAEVVVTEIPKEEKDPGMGAMGGMGGGMGGGMF
Regarding B4, the “Difference log2” value with HaCat cell extract preys (bait DLG1_1 PDZ vs MBP) was 6.29. Besides, the “Ratio DLG1_1/MBP” value in the test on HaCat cell extract preys (bait DLG1_1 PDZ, fold change of prey) turned out to be 78.233. In addition, in the test on HeLa cell extract preys (bait TX1BP3 PDZ vs MBP control), the Ratio came to 104.688 and the Difference was found to be 6.71.

B5: CAV1 (protein, UniProt Q03135 2-178, looked up)
Caveolin-1: SGGKYVDSEGHLYTVPIREQGNIYKPNNKAMADELSEKQVYDAHTKEIDLVNRDPKHLNDDVVKIDFEDVIAEPEGTHSFDGIWKASFTTFTVTKYWFYRLLSALFGIPMALIWGIYFAILSFLHIWAVVPCIKSFLIEIQCISRVYSIYVHTVCDPLFEAVGKIFSNVRINLQKEI
On to B5, for which the “Difference log2” value in the test on HaCat cell extract preys (bait SNX27 PDZ vs MBP) was 8.5897. For the same molecule, the “Ratio SNX27/MBP” value in the test on HaCat cell extract preys (fold change of prey) stood at 385.263.

B6: SFPQ (protein, UniProt P23246 1-707, looked up)
Splicing factor, proline- and …: MSRDRFRSRGGGGGGFHRRGGGGGRGGLHDFRSPPPGMGLNQNRGPMGPGPGQSGPKPPIPPPPPHQQQQQPPPQQPPPQQPPPHQPPPHPQPHQQQQPPPPPQDSSKPVVAQGPGPAPGVGSAPPASSSAPPATPPTSGAPPGSGPGPTPTPPPAVTSAPPGAPPPTPPSSGVPTTPPQAGGPPPPPAAVPGPGPGPKQGPGPGGPKGGKMPGGPKPGGGPGLSTPGGHPKPPHRGGGEPRGGRQHHPPYHQQHHQGPPPGGPGGRSEEKISDSEGFKANLSLLRRPGEKTYTQRCRLFVGNLPADITEDEFKRLFAKYGEPGEVFINKGKGFGFIKLESRALAEIAKAELDDTPMRGRQLRVRFATHAAALSVRNLSPYVSNELLEEAFSQFGPIERAVVIVDDRGRSTGKGIVEFASKPAARKAFERCSEGVFLLTTTPRPVIVEPLEQLDDEDGLPEKLAQKNPMYQKERETPPRFAQHGTFEYEYSQRWKSLDEMEKQQREQVEKNMKDAKDKLESEMEDAYHEHQANLLRQDLMRRQEELRRMEELHNQEMQKRKEMQLRQEEERRRREEEMMIRQREMEEQMRRQREESYSRMGYMDPRERDMRMGGGGAMNMGDPYGSGGQKFPPLGGGGGIGYEANPGVPPATMSGSMMGSDMRTERFGQGGAGPVGGQGPRGMGPGTPAGYGRGREEYEGPNKKPRF
Take B6: the Ratio came to 33.0339 in the test with HeLa cell extract preys (bait DLG1_1 PDZ vs MBP control) and 39.0318 in the test on HeLa cell extract preys (setting [2]). For the same molecule, the Difference with HeLa cell extract preys (bait DLG1_1 PDZ vs MBP control) is recorded as 5.046; in the test with HeLa cell extract preys (setting [1]) it was 5.287.
